Our source for the inhibition of the cytotoxic activity of aCCR8-2-CAR-12-expressing KHYG-1 cells against ATN-1 cells (calcein), antibody values is US20240190975A1.

The test addresses human CCR8 (human) (UniProt P51685). Briefly: cell-based or functional assay.
UniProt P51685, sequence (P51685 whole entry): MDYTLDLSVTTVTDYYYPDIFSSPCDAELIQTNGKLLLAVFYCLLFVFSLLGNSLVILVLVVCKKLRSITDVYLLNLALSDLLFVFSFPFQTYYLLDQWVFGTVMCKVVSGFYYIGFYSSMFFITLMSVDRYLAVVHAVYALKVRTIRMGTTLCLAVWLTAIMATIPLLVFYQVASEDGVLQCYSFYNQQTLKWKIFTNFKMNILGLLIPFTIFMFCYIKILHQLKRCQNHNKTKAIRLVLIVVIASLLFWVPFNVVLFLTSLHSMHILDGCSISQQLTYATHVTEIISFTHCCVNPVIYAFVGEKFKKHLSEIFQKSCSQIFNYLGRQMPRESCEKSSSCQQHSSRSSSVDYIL

Regarding “anti-human CCR8 antibody (clone name: L263G8, BioLegend, Inc.)”, the inhibition of the cytotoxic activity of aCCR8-2-CAR-12-expressing KHYG-1 cells against ATN-1 cells (calcein), antibody at 33 nM added 10 minutes before the effector cells was greater than 50%.
